# Test results published in patent US20210309739A1 (CISCIO BIOASSAYS, published 2021).
# Read-outs that look alike come from different tables or passages of the source.
# Tests used:
# [1] = target: T1, empty G alphai1 protein (recombinant TST-Galphai1 protein, no nucleotide) (human, UniProt P63096 1-354); test: TR-FRET (HTRF) saturation binding; VH-d2 titrated on TST-Galphai1, empty form; mean Kd
# T1 construct: Same polypeptide as m14 and m15; also called empty G protein alpha; empty form of the G protein alpha; not shown: N-terminal TwinStreptag (TST) (IBA) tag and TEV linker
# T1 sequence (P63096 whole entry): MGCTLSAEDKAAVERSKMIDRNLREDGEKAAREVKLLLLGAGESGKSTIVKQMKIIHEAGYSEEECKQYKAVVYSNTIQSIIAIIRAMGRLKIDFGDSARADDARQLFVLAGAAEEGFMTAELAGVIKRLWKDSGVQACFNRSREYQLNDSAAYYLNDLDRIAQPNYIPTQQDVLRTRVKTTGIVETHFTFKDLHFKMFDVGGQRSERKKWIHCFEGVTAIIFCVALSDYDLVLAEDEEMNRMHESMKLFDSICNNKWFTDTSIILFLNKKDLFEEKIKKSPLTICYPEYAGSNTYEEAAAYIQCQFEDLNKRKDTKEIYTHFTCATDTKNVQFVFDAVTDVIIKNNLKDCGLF
# [2] = target: T2, recombinant TST-Galphai1 protein bound to GDP (human, UniProt P63096 1-354, Loaded non-covalently with GDP (10 uM). The N-terminal TwinStreptag and TEV linker are not in the letters.); test: TR-FRET (HTRF) saturation binding; VH-d2 titrated on 1 nM TST-Galphai1 with 10 uM GDP, anti-TST-Lumi4-Tb donor; mean Kd
# T2 construct: Same polypeptide as m14 and m16; here loaded with an excess of GDP (10 uM); Produced in Sf9 insect cells; also called Galphai1 protein loaded with GDP
# T2 sequence (P63096 whole entry): as above
# Experimental: (§1) The TR-FRET (HTRF) test made it possible to determine the affinity (Kd) of the various antibodies for the Galphai1 protein; FIG. 2 illustrates the principle of this test. A fixed concentration (1 nM) of the recombinant Galphai1 protein purified and tagged with TST (TST-Galphai1 protein) was placed in the presence of an excess of nucleotide (GDP or GTPgS) (10 μM), of a fixed concentration (0.5 nM) of anti-TST antibody labeled with the donor Lumi4®-Tb (anti-TST antibody-Lumi4®-Tb) and of increasing concentrations of VH-type single-domain antibodies labeled with the acceptor d2 (anti-Galphai VH antibody-d2). The total HTRF signal was then obtained.
# (§2) The specific HTRF signal of the interaction between the antibody and the Galphai1 protein was then calculated by subtracting the nonspecific signal from the total signal. The data of the specific HTRF signal were then analyzed on GraphPad Prism7 software using a “one site specific binding” fit. The dissociation constant (Kd) of the antibody for the Galphai1 protein was then determined. The results which were obtained with the antibodies which bind to the G protein alpha bound to GTP gamma S and with the antibodies which bind to the G protein alpha bound to GDP are shown in Tables 1 and 2 below.
# [3] = target: T2, recombinant TST-Galphai1 protein bound …; test: TR-FRET (HTRF) saturation binding; 6HIS-tagged VH-HcAb titrated on 1 nM TST-Galphai1 with 10 uM GDP, anti-TST-Lumi4-Tb donor and anti-6HIS-d2 acceptor; mean Kd
# Experimental: (§3) FIG. 12 illustrates the principle of the TR-FRET (HTRF) assay which was carried out to determine the affinity (Kd) of the various VH-HcAbs for the Galphai1 protein. A fixed concentration (1 nM) of the recombinant Galphai1 protein purified and tagged with TST (TST-Galphai1 protein) is placed in the presence of an excess of nucleotide (GDP or GTPgS) (10 μM), of a fixed concentration (0.5 nM) of anti-TST antibody labeled with the donor Lumi4®-Tb (anti-Tag Ab-Donor), of a fixed concentration (50 nM) of anti-6HIS antibody labeled with the acceptor d2 (anti-6HIS-acceptor antibody, Cisbio Bioassays #61HISDLF), and of increasing concentrations of a VH-HcAb antibody tagged with 6HIS (6HIS-Fc-sdAb). The total HTRF signal was then obtained.
# (§4) The specific HTRF signal of the interaction between the VH-HcAb and the Galphai1 protein was then calculated by subtracting the nonspecific signal from the total signal. The data of the specific HTRF signal were then analyzed on GraphPad Prism7 software using a “one site specific binding” fit. The dissociation constant (Kd) of the VH-HcAb for the Galphai1 protein was then determined.
# [4] = target: T1, empty G alphai1 protein (recombinant …); test: TR-FRET (HTRF) saturation binding; VH-d2 titrated on TST-Galphai1, empty form; mean Kd; remark: listed apart in the source
# [5] = target: T3, recombinant TST-Galphai1 protein bound to GTPgammaS (human, UniProt P63096 1-354, Loaded non-covalently with GTPgammaS (10 uM). The N-terminal TwinStreptag and TEV linker are not in the letters.); test: TR-FRET (HTRF) saturation binding; VH-d2 titrated on 1 nM TST-Galphai1 with 10 uM GTPgS, anti-TST-Lumi4-Tb donor; mean Kd
# T3 construct: Same polypeptide as m15 and m16; here loaded with an excess of GTPgS (10 uM); Produced in Sf9 insect cells; also called Galphai1 protein loaded with GTPgS
# T3 sequence (P63096 whole entry): as above
# Experimental: as §1, §2
# [6] = target: T3, recombinant TST-Galphai1 protein bound …; test: TR-FRET (HTRF) saturation binding; 6HIS-tagged VH-HcAb titrated on 1 nM TST-Galphai1 with 10 uM GTPgS, anti-TST-Lumi4-Tb donor and anti-6HIS-d2 acceptor; mean Kd
# Experimental: as §3, §4
Binder,Kd [1],Kd [2],Kd [5],other results
"VH F2 (VHH, labeled with the acceptor fluorescent probe d2 (site not stated), Made in E. coli; also called anti-Galphai VH antibody-d2) VHH: EVQLVESGGGLVQPGGSLRLSCAASGFTFSSYAMSWVRQAAGKGPEWVASISSRGITTDYAHSVKGRFTVSRDNTKNTLYLQMNSLKPEDTALYYCVKGWMPTGWGQGTQVTVSS",1 nM,14 nM,–,–
"HcAb-G7 (Fc fusion, VH-type heavy-chain antibody: VH fused to CH2 and CH3 of human IgG1, then a 6-histidine tag; made in HEK293; Detected in the assay through an anti-6HIS antibody labeled with d2; also called VH-HcAb G7; 6HIS-Fc-sdAb; not shown: CH2 and CH3 domains of a human IgG1) heavy (part 1 of 2): QVQLQESGGGLVQPGGSLRLSCAASGFTFSWYGMSWVRQAPGKGPEWVASISSRGITTDYAHSVKGRFTVSRDNTKNTLYLQMNSLKPEDTGVYYCTRVLWYDSGAYSLNDFWGQGTQVTVSSAAAEQKLISEEDLNGAAHHHHHHGS heavy (part 2 of 2): HHHHHH",–,–,–,Kd [3]: 5 nM
"VH F4 (VHH, labeled with the acceptor fluorescent probe d2 (site not stated), Made in E. coli; also called anti-Galphai VH antibody-d2) VHH: EVQLVESGGGLVQPGGSLRLSCAASGFTFSSYYMNWVRQAPGKGLEWVSSIYNGDGDTDYSDSVKGRFTISRDNAKNTVYLEMSDLKVQDTAIYYCNAYDGTLLRDYWGQGTQVTVSS",–,–,31 nM,Kd [4]: 83 nM
"VH B11 (VHH, labeled with the acceptor fluorescent probe d2 (site not stated), Made in E. coli; also called anti-Galphai VH antibody-d2) VHH: EVQLVESGGGLVQPGGSLRLSCAASGFTFNDYWMYWVRQAPGKGLEWVSSINTGGSSTYYSDSVKGRFTTARDNAKNSLYLQLNSLRPEDTAVYYCAKEGPVGPPDYWGQGTQVTVSS",–,–,1 nM,Kd [4]: 17 nM
"VH F9 (VHH, labeled with the acceptor fluorescent probe d2 (site not stated), Made in E. coli; also called anti-Galphai VH antibody-d2) VHH: EVQLVESGGGLVQPGGSLRLSCAASGFTFDDYAMNWVRQAAGKGPEWVASISSRGITTDYAHSVKGRFTVSRDNTKNTLYLQMNSLKPDDAAVYYCATDPSTWYRGTAHWGQGTQVTVSS",–,–,32 nM,–
"VH G6 (VHH, labeled with the acceptor fluorescent probe d2 (site not stated), Made in E. coli; also called anti-Galphai VH antibody-d2) VHH: EVQLVESGGDLVQPGGSLRLSCAASGFTFSTYRMNWVRQAPGKGLEWVASISSRGITTDYAHPVKGRFTVSRDNTKNTLYLQMNSLKPDDAAVYYCATDPSTWYRGTAHWGQGTQVTVSS",–,–,95 nM,–
"HcAb-F9 (Fc fusion, also called VH-HcAb F9; 6HIS-Fc-sdAb; not shown: CH2 and CH3 domains of a human IgG1) heavy (part 1 of 2): EVQLVESGGGLVQPGGSLRLSCAASGFTFDDYAMNWVRQAAGKGPEWVASISSRGITTDYAHSVKGRFTVSRDNTKNTLYLQMNSLKPDDAAVYYCATDPSTWYRGTAHWGQGTQVTVSSAAAEQKLISEEDLNGAAHHHHHHGS heavy (part 2 of 2): HHHHHH",–,–,–,Kd [6]: 3 nM
"VH A10 (VHH, labeled with the acceptor fluorescent probe d2 (site not stated), Made in E. coli; also called anti-Galphai VH antibody-d2) VHH: EVQLVESGGGLVQPGGSLRLSCAASGLTYSDYAMSWVRQAAGKGPEWVASISSRGITTDYAHSVKGRFTVSRDNTKNTLYLQMNSLEPEDTAVYYCTTVSYWRYEYWGQGTQVTVSS",1 nM,15 nM,–,–
"VH E2 (VHH, labeled with the acceptor fluorescent probe d2 (site not stated), Made in E. coli; also called anti-Galphai VH antibody-d2) VHH: EVQLVESGGGLVQPGGSLRLSCIGSGYTFSSYAMAWVRQASGKGPEWVASISSRGITTDYAHSVKGRFTISRDNAKNTLYLHMNNLKPEDTALYYCTRVLWYENGLYSLNDFWGQGTQVTVSS",2 nM,72 nM,–,–
"VH G7 (VHH, labeled with the acceptor fluorescent probe d2 (site not stated), Made in E. coli; also called anti-Galphai VH antibody-d2) VHH: QVQLQESGGGLVQPGGSLRLSCAASGFTFSWYGMSWVRQAPGKGPEWVASISSRGITTDYAHSVKGRFTVSRDNTKNTLYLQMNSLKPEDTGVYYCTRVLWYDSGAYSLNDFWGQGTQVTVSS",5 nM,31 nM,–,–
"HcAb-B11 (Fc fusion, also called VH-HcAb B11; 6HIS-Fc-sdAb; not shown: CH2 and CH3 domains of a human IgG1) heavy (part 1 of 2): EVQLVESGGGLVQPGGSLRLSCAASGFTFNDYWMYWVRQAPGKGLEWVSSINTGGSSTYYSDSVKGRFTTARDNAKNSLYLQLNSLRPEDTAVYYCAKEGPVGPPDYWGQGTQVTVSSAAAEQKLISEEDLNGAAHHHHHHGS heavy (part 2 of 2): HHHHHH",–,–,–,Kd [6]: 1 nM
